Data from article PMC9876794 (2022).
Substitutions are numbered along the chain they refer to.

B1: B23 (antibody, V domains shown)
VH: EVKLEESGGGLVQPGGSMKLSCAASGFTFSDAWMDWVRQSPEKGLEWIAEIRNKANNHATYYAESVKGRFTISRDDSKSSVYLQMNSLRAEDTGIYYCTRGLTGPYFDYWGQGTTLTVSS
VL: DIVMTQSQKFMSTSVGDRVTITCKASQNVRTAVAWYQQKPGQSPKALIYLASNRHTGVPDRFTGSGSGTDFTLTISNVQSEDLADYFCLQHWNYPLTFGAGTKLELK
B2: B43 (antibody, V domains shown)
VH: DVQLQESGPGLVKPSQSLSLTCSVTGYSITSGYYWNWIRQSPGNKLEWMGYISYDGSNKYNPSLKNRISITRDTSKNQFFLKLNSVTTEDTAIYYCARWDKGAMDYWGQGTSVTVSS
VL: B1 VL with T20S, S65G
B3: A21 (antibody, V domains shown)
VH: QVQLQQSGAELVKPGASVKISCKASGYSFSDYWMNWVKQRPGKGLEWIGQIFPGDGDTNYNGKFKGKAALTADKSSSTAYMQLSSLTSEDSAVYFCARRELNYFDYWGQGTTLTVSS
VL: QIVLTQSPAIMSASPGEKVTMTCSASSSVSYMFWYQQKPGSSPRLLIYDTSNLASGVPVRFSGSGSGTSYSLTVSRMEAEDAATYYCQQWSSYPLTFGSGTKLEIK
B4: A11 (antibody, V domains shown)
VH: QVQLQQPGAELVKPGTSVKLSCKASGYTFTSYWMHWVKQRPGQGLEWIGMIHPNSGNTNYNEKFKSKATLTVDKSSSTAYMQLSSLTSEDSAVYYCADLGAWFAYWGQGTLVTVSA
VL: QIVLTQSPAIMSASPGEKVTMTCSASSSISYMHWYQQKPGTSPKRWIYDTSKLASGVPARFSGSGSGTSYSLTISSMEAEDAATYYCHQRSSYPWTFGGGTKLEIK
B5: B06 (antibody, V domains shown)
VH: QAYLQQSGAELVRPGASVKMSCKASGYTFTSYNMHWVKQTPRQGLEWIGAFYPGNGDTSYNQKFKGKATLTVDKSSSTAYMQLSSLTSEDSAVYFCARDGYPYYYAMDYWGQGTSVTVSS
VL: DIKMTQSPSSMYASLGERVTITCKASQDINSFLSWFQQKPGKSPKTLIYRANRLVDGVPSRFSGSGSGQDYSLTISSLEYEDMGIYYCLQYDEFPWTFGGGTKLEIK
B6: B04 (antibody, V domains shown)
VH: QVQLKQSGAELVRPGASVKLSCKASGYTFTDYYITWVKQRPGQGLEWIARICPGSGNTFYNEKFMGKATLTAEKSSSTAYMQLSSLTSEDSAVYFCARRGTLLYAFAYWGQGTLVTVSA
VL: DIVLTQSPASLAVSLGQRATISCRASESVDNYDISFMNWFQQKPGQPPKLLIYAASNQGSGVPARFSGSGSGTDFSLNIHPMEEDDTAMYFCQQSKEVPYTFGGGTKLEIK
B7: B42 (antibody, V domains shown)
VH: QVQLQQPGAELVKPGASVKVSCKASGYTFTSYWMHWVKQRPGQGLEWIGRIHPSDSDTNYNQKFKDKATLTVDKSSSTAYMQLSSLTSEDSAVYFCVIDHYFDYWGQGTTLTVSS
VL: DIVMSQSPSSLAVSAGEKVTMSCKSSQSLLNSRTRKNYLAWYQQKPGQSPKLLIYWASTRESGVPDRFTGSGSGTDFTLTISSVQAEDLAVYYCKQSYNLYTFGGGTKLEIK
B8: B45 (antibody)
chain 1: QVQLQQPGAELVKPGASVKVSCKASGYTFTSYWMHWVKQRPGQGLEWIGRIHPSDSDTNYNQKFKGKATLTVDKSSSTAYMQLCSLTSEDCAVYYCAIWEDYGVFYAMDYWGQGTSVTVSS
chain 2: DIVMTQSQKFMSTSVGDRVSVTCKASQNVGTNVAWYQQKPGQSPKALIYSASYRYSGVPDRFTGSGSGTDFTLTISNVQSEDLAEYFCQQYNSYPLTFGAGAKLELK
B9: B46 (antibody, V domains shown)
VH: QVQLQQPGAELVKPGASVKVSCKASGYTFTSYWMHWVKQRPGQGLEWIGRIHPSDSDTNYNQNFKGKATLTVDKSSSTAYMQLSSLTSEDSAVYYCALDGYYGIWWGQGTLVTVSA
VL: B8 chain 2 with Y91C, A100G, A102T, L106I
B10: A16 (antibody, V domains shown)
VH: DVQLQESGPGLVKPSQSLSLTCSVTGYSITSGYYWNWIRQFPGNKLEWMGYISYDGSNNYNPSLKNRISITRDTSKNQFFLKLNSVTTEDTATYYCARFHYGSRPRYWYFDVWGTGTTVTVSS
VL: DIQMTQTTSSLSASLGDRVTISCSASQGIRNYLNWYQQKPDGTVKLLIYYTSSLHSGVPSRFSGSGSGTDYSLTISNLEPEDIATYYCQQYSKLPWTFGGGTKLEIK
B11: A23 (antibody, V domains shown)
VH: QAYLQQSGAELVRPGASVKMSCKASGYTFTSYNMHWVKQTPRQGLEWIGAIYPGNGDTSYNQKFKDKATLTVDKSSSTAYMQLSSLTSGDSAVYFCARDYYGCSYGYFDVWGTGTTVTVSS
VL: B10 VL with R30S, W96Y
B12: B44 (antibody, V domains shown)
VH: QVQLQQPGAELVKPGASVKVSCKASGYTFTSYWMHWVKQRPGQGLEWIGRIHPSDSDTNYNQKFKGKATFTVDKSSSTAYMQLSSLTSEDSAVYYCAIGDGRDFDYWGQGTTLTVSS
VL: DVVLTQTPLSLPVNIGDQASISCKSTKSLLNSDGFTYLDWYLQKPGQSPQLLIYLVSNRFSGVPDRFSGSGSGTDFTLKISRVEAEDLGVYYCFQSNYLPLTFGSGTKLEIK
B13: B01 (antibody, V domains shown)
VH: B12 VH with V18M, F70L, D100G
VL: B12 VL with V56F, L101W, S105G

Target: SARS-CoV-2 spike RBD (WT) (Severe acute respiratory syndrome …, UniProt P0DTC2)
Test: BLI

| Binder | Kd [nM] |
| --- | --- |
| B1 | 211 |
| B2 | 40.7 |
| B3 | 138 |
| B4 | 7620 |
| B5 | 110 |
| B6 | 100 |
| B7 | 91.8 |
| B8 | 837 |
| B9 | 282 |
| B10 | 140 |
| B11 | 850 |
| B12 | 123 |
| B13 | 18.7 |
